Measurements as given in patent US7318921B2, “Therapeutic compositions that alter the immune response” (AltaRex Medical Corp., priority 1996, dated 2008).

Experiments:
CA125 [1] = target: T1, CA125 (Homo sapiens, UniProt Q8WXI7); test: Inhibition of binding of patients' anti-CA125 antibodies to CA125 (solid phase); classification Ab3/Ab1c; conditions: inhibitor at 10500 U/ml
Method: Anti-CA 125 positive samples were tested for inhibition of their binding to CA 125 (solid phase) by CA 125, MAb-B43.13 scFv, MAb-B27.1 F(ab′), or MAb M11 F(ab′). Single chain MAb-B43.13, F(ab′) MAb-B27.1, and F(ab′) M11 were used in the inhibition studies to avoid non-specific inhibition of the Fc portion of the antibody and cross-reactivity due to HAMA. To be considered to be significant, inhibition had to be at least 15%.
Thus, if the patients serum contained anti-CA125 antibodies that were inhibitable by MAb-B43.13 only, it was classified as containing Ab3; those inhibitable by MAb-B27.1 were classified as Ab1c. In other words, injecting a binding agent such as an antibody against a single epitope on a multi-epitopic antigen leads to generation of a humoral and cellular response against a different epitope on the antigen.
Method: 86 ovarian cancer patients with active disease were tested for the presence of antibodies against CA125. None of the patients had antibodies against CA125 before injection of MAb-B43.13. The patients were injected with 2 mg of MAb-B43.13 at varying time intervals (e.g., see Table 5 for some of the patients). Sera from these patients were analyzed for the presence of human anti-CA125 antibodies by their ability to bind to the CA125 [R. Madiyalakan et al, Hybridoma, 14:199-203 1995)]. […]

[2] = system: CA125 specific mouse T-cells; test: Proliferation of CA125 specific T-cells with stimulated peritoneal macrophages ([3H]-thymidine uptake); format: cell-based; conditions: macrophages stimulated with agent, presented to CA125 specific mouse T-cells; 1 μug/ml of the antibody and 100 Units/ml CA125; mean of three experiments
From the text: Enhanced antigen-presentation of antigen-antibody complexes was attributed to facilitated antigen uptake via the Fcγ-receptor (macrophages, dendritic cells) or membrane-bound Ig (B cells) on professional antigen-presenting cells (APC). […] Accordingly, various professional APC can be involved in the preferential presentation of the CA125-MAb-B43.13 complex. We tested B cells with two different specificities as well as macrophages as APC: CA125-specific B cells (from mice immunized with CA125) and anti-MAb-B43.13-specific B cells (from mice immunized with MAb-B43.13). Normal B cells served as control. […] Enhanced presentation of immune complexes by macrophages and dendritic cells is mediated by preferential uptake via the FcγR. FIG. 4 confirms that CA125 is presented more efficiently by macrophages, if complexed with an antigen specific antibody.
Better cellular immune response was observed when the UV exposed antibody was presented in association with the antigen to T-cells. Thus, macrophages isolated from mouse peritoneal cavities were stimulated with native B43.13 or UV exposed B43.13 in association with CA125 and presented to CA125 specific mouse T-cells isolated from mice injected with CA125. Control experiments included stimulation of the macrophages without the antigen. […]

CA125 [3] = target: T1, CA125; test: in vitro studies, method not stated
FcγR = conditions: complexed with anti-tetanus toxoid IgG; measured by TH cell activation; cited from earlier work

With “CA125: soluble multi-epitopic tumor associated antigen of epithelial ovarian cancers” as the substance, how does the “Inhibition, No. of Positives/Total” value (CA125 [1]; anti-CA125 positive samples of patients injected with MAb-B43.13, positive = inhibition at least 15%) read?
The value was 26/28.

What about the “Inhibition, positives (%)” value (CA125 [1]; anti-CA125 positive samples) of the same substance?
Its value is “(92.8) %”.

And the “STIMULATION INDEX” value [2]?
Its value is 2.76.

With MAb-B43.13 (antibody) as the substance, how does the binding capacity (units of CA 125 per 1 ng of MAb-B43.13) (CA125 [3]) read?
The binding capacity (units of CA 125 per 1 ng of MAb-B43.13) was 10.

Which “increase in processing and presentation of the antigen” value (FcγR) does the source give for tetanus toxoid here?
The value was 10-1000 -fold.
